This is an account of results in patent publication KR20180129514A (dated 2018).

In this assay the target is T1, mCherry H-RAS G12V (NIH3T3 세포주에서 발현) (UniProt P01112 1-186).
T1 construct: whole, on cells; Intracellular, at the inner face of the cell membrane; also called 세포내 활성화된 H-RAS G12V 돌연변이; 활성화된 RAS; not shown: mCherry red fluorescent protein
The assay is described as follows: confocal microscopy, overlap in NIH3T3 cells expressing mCherry H-RAS G12V.

B1: 세포질 침투 항체 TMab4 (antibody, V domains shown)
VH: EVQLVESGGGLVQPGGSLRLSCAASGYTFTSYVMHWVRQAPGKGLEWVSAINPYNDGNYYADSVKGRFTISRDNSRKTLYLQMNSLRAEDTAVYYCARGAYKRGYAMDYWGQGTTVTVSS
VL: DLVMTQSPSSLSASVGDRVTITCKSSQSLFNSRTRKNYLAWYQQKPGKAPKLLIYWASTRESGVPSRFSGSGSGTDFTLTISSLQPEDFATYYCQQYYYHMYTFGQGTKVEIKR
notes: Full IgG format (CH1-hinge-CH2-CH3 and CL, detected with anti-human Fc); also called cytotransmab; CT
On to B1, for which the binding result is listed as “no binding (tested: 2 μM)”.
